Consider one molecule from paper PMC9168836, “Clamping of DNA shuts the condensin neck gate” (Proceedings of the National Academy of Sciences of the …, 2021).

In one experiment the target is T1, Ycs4 (S. cerevisiae, UniProt Q06156 1-1176).
T1 construct: Ycs4, HAWK (HEAT repeat) subunit of S. cerevisiae condensin
T1 sequence: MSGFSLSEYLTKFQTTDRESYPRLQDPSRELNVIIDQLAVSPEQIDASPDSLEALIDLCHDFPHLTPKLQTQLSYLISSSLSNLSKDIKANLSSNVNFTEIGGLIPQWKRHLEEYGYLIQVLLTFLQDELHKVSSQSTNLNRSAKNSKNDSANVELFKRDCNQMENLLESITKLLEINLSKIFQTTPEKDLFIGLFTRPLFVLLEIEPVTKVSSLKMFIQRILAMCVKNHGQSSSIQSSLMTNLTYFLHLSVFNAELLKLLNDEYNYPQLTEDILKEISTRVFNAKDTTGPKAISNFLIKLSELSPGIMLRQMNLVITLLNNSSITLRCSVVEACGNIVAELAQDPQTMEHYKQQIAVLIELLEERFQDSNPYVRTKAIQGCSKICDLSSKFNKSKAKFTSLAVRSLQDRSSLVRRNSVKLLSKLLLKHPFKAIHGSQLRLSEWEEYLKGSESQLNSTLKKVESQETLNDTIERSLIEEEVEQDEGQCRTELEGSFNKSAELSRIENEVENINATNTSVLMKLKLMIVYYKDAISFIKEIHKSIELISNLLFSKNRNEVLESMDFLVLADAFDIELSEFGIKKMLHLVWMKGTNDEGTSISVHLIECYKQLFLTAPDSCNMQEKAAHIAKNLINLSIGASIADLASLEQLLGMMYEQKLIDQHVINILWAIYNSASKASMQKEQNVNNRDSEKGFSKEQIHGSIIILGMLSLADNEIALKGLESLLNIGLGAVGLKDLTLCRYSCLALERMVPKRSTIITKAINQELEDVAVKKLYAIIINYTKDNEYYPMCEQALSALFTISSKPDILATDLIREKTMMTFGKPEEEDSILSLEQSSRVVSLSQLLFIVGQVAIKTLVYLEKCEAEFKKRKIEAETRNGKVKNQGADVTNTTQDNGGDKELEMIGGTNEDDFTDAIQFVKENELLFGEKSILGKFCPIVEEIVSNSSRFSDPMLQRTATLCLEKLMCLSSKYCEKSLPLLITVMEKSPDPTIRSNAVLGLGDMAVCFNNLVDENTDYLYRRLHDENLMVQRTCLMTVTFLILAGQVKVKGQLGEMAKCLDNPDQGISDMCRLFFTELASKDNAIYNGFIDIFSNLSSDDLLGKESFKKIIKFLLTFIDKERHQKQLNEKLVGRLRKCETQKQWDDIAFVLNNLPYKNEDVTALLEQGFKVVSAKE
Briefly: cryo-EM structure; condensin pentamer with 100 nM relaxed circular DNA (1,789 bp), 5 mM ADP, 1 mM BeSO4, 10 mM NaF in TNT buffer pH 7.5; VPP and non-VPP images; low-resolution maps of the head module and of Ycg1-DNA. The settings on record: both partners purified.

The next experiment addresses T2, Smc2 (budding yeast (S. cerevisiae), UniProt P38989 1-1170).
T2 construct: Smc2, SMC subunit of budding yeast (S. cerevisiae) condensin; only the head domain and proximal coiled coil (neck) are resolved in the maps; Subunit of the wild-type condensin tetramer and pentamer used for cryo-EM
T2 sequence: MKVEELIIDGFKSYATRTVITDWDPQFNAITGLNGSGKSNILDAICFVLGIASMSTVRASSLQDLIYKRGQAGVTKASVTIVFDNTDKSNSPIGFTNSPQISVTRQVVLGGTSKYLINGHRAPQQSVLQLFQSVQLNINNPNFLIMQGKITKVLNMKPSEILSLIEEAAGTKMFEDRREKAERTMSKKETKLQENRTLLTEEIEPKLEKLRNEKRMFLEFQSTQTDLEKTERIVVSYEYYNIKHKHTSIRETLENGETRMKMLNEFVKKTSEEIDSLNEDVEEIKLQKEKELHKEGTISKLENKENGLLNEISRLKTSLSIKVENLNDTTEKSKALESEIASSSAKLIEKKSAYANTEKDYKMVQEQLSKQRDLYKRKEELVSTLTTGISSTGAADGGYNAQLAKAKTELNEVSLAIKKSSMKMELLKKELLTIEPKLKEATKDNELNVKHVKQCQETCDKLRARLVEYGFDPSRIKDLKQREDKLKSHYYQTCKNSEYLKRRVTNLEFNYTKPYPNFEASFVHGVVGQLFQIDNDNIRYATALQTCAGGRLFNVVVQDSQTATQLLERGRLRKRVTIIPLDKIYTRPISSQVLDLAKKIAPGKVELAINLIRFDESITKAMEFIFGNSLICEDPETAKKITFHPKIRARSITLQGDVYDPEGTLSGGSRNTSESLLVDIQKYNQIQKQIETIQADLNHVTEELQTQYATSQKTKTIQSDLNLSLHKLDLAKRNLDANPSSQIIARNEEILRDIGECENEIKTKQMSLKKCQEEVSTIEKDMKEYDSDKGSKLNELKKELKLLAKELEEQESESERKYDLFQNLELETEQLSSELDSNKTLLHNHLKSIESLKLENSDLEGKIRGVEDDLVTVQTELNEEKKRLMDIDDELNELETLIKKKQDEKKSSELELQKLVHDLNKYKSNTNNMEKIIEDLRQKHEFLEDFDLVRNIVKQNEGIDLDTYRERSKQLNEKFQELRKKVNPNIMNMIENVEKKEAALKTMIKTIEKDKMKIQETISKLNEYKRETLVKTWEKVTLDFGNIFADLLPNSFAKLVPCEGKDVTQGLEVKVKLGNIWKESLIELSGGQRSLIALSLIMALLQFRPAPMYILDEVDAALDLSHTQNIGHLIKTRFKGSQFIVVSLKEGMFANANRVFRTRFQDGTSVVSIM
The description is as above. The settings on record: both partners purified.

B1: Brn1-HA3-His12 (natural protein, budding yeast (S. cerevisiae), UniProt P38170 1-754, looked up)
chain: MTTQLRYENNDDDERVEYNLFTNRSTMMANFEEWIKMATDNKINSRNSWNFALIDYFYDLDVLKDGENNINFQKASATLDGCIKIYSSRVDSVTTETGKLLSGLAQRKTNGASNGDDSNGGNGEGLGGDSDEANIEIDPLTGMPISNDPDVNNTRRRVYNRVLETTLVEFETIKMKELDQELIIDPLFKKALVDFDEGGAKSLLLNTLNIDNTARVIFDASIKDTQNVGQGKLQRKEEELIERDSLVDDENEPSQSLISTRNDSTVNDSVISAPSMEDEILSLGMDFIKFDQIAVCEISGSIEQLRNVVEDINQAKDFIENVNNRFDNFLTEEELQAAVPDNAEDDSDGFDMGMQQELCYPDENHDNTSHDEQDDDNVNSTTGSIFEKDLMAYFDENLNRNWRGREHWKVRNFKKANLVNKESDLLEETRTTIGDTTDKNTTDDKSMDTKKKHKQKKVLEIDFFKTDDSFEDKVFASKGRTKIDMPIKNRKNDTHYLLPDDFHFSTDRITRLFIKPGQKMSLFSHRKHTRGDVSSGLFEKSTVSANHSNNDIPTIADEHFWADNYERKEQEEKEKEQSKEVGDVVGGALDNPFEDDMDGVDFNQAFEGTDDNEEASVKLDLQDDEDHKFPIRENKVTYSRVSKKVDVRRLKKNVWRSINNLIQEHDSRKNREQSSNDSETHTEDESTKELKFSDIIQGISKMYSDDTLKDISTSFCFICLLHLANEHGLQITHTENYNDLIVNYEDLATTQAAS
notes: Brn1, kleisin subunit of budding yeast (S. cerevisiae) condensin; 754 residues as printed (279/754 traced in the head module map); The tags' end is read from the plasmid's name BRN1-HA3-His12; also called kleisin Brn1
Turning to B1, the binding result with Ycs4 and in the experiment with Smc2 was “binds” in each case.
